From paper PMC2702692

Target: BSA-glycopolymer conjugate 10 (glycoprotein mimic 10) (bovine) (UniProt P02769)
Assay: SPR

Sequence of UniProt P02769 (P02769 25-607): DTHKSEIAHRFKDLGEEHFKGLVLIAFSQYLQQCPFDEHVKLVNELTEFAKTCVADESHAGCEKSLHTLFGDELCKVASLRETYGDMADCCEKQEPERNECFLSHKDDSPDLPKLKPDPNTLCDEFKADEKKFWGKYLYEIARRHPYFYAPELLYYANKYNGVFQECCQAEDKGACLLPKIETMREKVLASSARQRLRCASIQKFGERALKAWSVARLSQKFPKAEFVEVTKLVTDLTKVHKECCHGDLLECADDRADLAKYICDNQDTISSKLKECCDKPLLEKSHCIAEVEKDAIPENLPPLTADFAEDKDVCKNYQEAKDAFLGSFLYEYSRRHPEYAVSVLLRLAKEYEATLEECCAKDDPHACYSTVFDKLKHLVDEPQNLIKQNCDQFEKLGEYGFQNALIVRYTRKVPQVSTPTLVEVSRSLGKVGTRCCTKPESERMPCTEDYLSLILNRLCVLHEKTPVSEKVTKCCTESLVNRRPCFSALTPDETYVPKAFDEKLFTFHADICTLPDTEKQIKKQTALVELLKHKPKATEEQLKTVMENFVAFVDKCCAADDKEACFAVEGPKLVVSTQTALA

recombinant rat mannose-binding lectin (MBL) (from UniProt P19999 18-238) (natural protein)
koff: 0.00073 s⁻¹
kon: 120000 M⁻¹ s⁻¹
